Publication doi:10.1101/2024.05.10.593582

Target: His6-Gp54^Bas11 (phage Bas11)
Assay: ITC

With His6-MBP-CapRel^SJ46 (natural protein) the Kd was 800 nM and the stoichiometry N was 1.
